Results: PMC9515186

Biological target: transferrin receptor 1 (mouse (endogenous in 4T1)) (UniProt Q62351)
Chain of UniProt Q62351 (Q62351 whole entry): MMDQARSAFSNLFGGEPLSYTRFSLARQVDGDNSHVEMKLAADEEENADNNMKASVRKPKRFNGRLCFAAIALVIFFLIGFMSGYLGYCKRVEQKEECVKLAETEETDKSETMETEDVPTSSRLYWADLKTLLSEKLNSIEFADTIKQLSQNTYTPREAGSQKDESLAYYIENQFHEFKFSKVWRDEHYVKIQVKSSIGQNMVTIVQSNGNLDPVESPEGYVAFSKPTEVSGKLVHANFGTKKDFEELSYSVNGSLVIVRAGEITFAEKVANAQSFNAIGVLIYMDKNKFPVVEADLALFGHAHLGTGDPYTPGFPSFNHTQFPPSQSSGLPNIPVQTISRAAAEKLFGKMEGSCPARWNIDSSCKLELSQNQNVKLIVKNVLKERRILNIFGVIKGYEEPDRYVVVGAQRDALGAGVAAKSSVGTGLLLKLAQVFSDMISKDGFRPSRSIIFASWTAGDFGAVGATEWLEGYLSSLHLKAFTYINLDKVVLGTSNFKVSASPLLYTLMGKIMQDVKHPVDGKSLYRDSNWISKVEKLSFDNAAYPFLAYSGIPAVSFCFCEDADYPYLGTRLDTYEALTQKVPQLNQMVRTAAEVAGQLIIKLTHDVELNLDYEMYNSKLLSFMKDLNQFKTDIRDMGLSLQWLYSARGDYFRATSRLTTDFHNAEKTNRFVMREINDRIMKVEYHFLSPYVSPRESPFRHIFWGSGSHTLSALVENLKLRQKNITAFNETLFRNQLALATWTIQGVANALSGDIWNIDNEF

Work on “ferritin (FITC-labelled, β-lapachone-loaded ferritin units, Ft-FITC@Lap) (from UniProt Q8MIP0 1-182; P02791 1-175) (natural protein)” yielded a decrease in FITC fluorescence accumulation (uptake, flow cytometry) in BSA-Man-Ft-FITC@Lap-treated 4T1 cells under pH 6.5 after pre-treatment with TfR1 antibody of 67% and a mean fluorescence intensity of FITC in 4T1 cells (CLSM) treated with BSA-Man@Mn2+-Ft-FITC@Lap, pH 6.5 group against pH 7.4 group of 3 fold.
